Assay results from article PMC11266573.
pKd: −log10 of the molar value.

Columns and labels:
[1] = target: H2AK119ub1-modified nucleosome core particle (NCP) (Xenopus | not stated) (UniProt P0CG47); assay: BLI; biotin-labeled nucleosomes immobilised on streptavidin (SA) XT biosensors (Gator), protein in solution; 30 °C, 1000 rpm; 20 mM Tris-HCl pH 7.5, 50 mM NaCl, 1 mM DTT, 0.01% Tween-20; 3 min association, 6 min dissociation
[2] = target: H2AK119ub1-modified nucleosome core particle (NCP) (Xenopus | not stated) (UniProt P0CG47); assay: BLI; competition: DNMT3A1 UDR loaded to biosensors pre-loaded with H2AK119ub1-modified NCP and various concentrations of tag-free JARID2(1-60)

Row | Substance | pKd [1] | percent decrease of the DNMT3A1 UDR association response at a JARID2(1-60):DNMT3A1 UDR molar ratio of 32:1 [2] [%]
1 | GST-tagged N-terminal segment of JARID2 (residues 1–60) (from UniProt Q92833 1-60) (domain or fragment) | 6.60 | –
2 | tag-free JARID2 N-terminal segment (residues 1–60) (from UniProt Q92833 1-60) (domain or fragment) | – | 40
